B1: target 1 MT 5'PFS GAA 3'PFS CCG (mixed)
RNA 1: CACCCGUGCAAAAAUGCAGGGGUCUAAAACUGAGCGGAUAACCUCUCUAUGG
RNA 2: GGGAAUGGAUCCACAUCUACGAAUUCGAACCAUAGAGAGGUUAUCCGCUCACCGAGAUCGGAAGAGCACACGU
B2: target 1 MT 5'PFS AGG 3'PFS CGG (mixed)
RNA 1: CACCCGUGCAAAAAUGCAGGGGUCUAAAACUGAGCGGAUAACCUCUCUAUGG
RNA 2: GGGAAUGGAUCCACAUCUACGAAUUCAGGCCAUAGAGAGGUUAUCCGCUCACGGAGAUCGGAAGAGCACACGU
B3: target 1 MT 5'PFS AAG 3'PFS AGA (mixed)
RNA 1: CACCCGUGCAAAAAUGCAGGGGUCUAAAACUGAGCGGAUAACCUCUCUAUGG
RNA 2: GGGAAUGGAUCCACAUCUACGAAUUCAAGCCAUAGAGAGGUUAUCCGCUCAAGAAGAUCGGAAGAGCACACGU
B4: target 1 MT 5'PFS AGG 3'PFS CGC (mixed)
RNA 1: CACCCGUGCAAAAAUGCAGGGGUCUAAAACUGAGCGGAUAACCUCUCUAUGG
RNA 2: GGGAAUGGAUCCACAUCUACGAAUUCAGGCCAUAGAGAGGUUAUCCGCUCACGCAGAUCGGAAGAGCACACGU
B5: target 1 MT 5'PFS ACG 3'PFS CUG (mixed)
RNA 1: CACCCGUGCAAAAAUGCAGGGGUCUAAAACUGAGCGGAUAACCUCUCUAUGG
RNA 2: GGGAAUGGAUCCACAUCUACGAAUUCACGCCAUAGAGAGGUUAUCCGCUCACUGAGAUCGGAAGAGCACACGU
B6: target 1 MT 5'PFS GAA 3'PFS UGU (mixed)
RNA 1: CACCCGUGCAAAAAUGCAGGGGUCUAAAACUGAGCGGAUAACCUCUCUAUGG
RNA 2: GGGAAUGGAUCCACAUCUACGAAUUCGAACCAUAGAGAGGUUAUCCGCUCAUGUAGAUCGGAAGAGCACACGU
B7: target 1 MT 5'PFS AAG 3'PFS AGG (mixed)
RNA 1: CACCCGUGCAAAAAUGCAGGGGUCUAAAACUGAGCGGAUAACCUCUCUAUGG
RNA 2: GGGAAUGGAUCCACAUCUACGAAUUCAAGCCAUAGAGAGGUUAUCCGCUCAAGGAGAUCGGAAGAGCACACGU
B8: target 1 MT 5'PFS GGC 3'PFS ACA (mixed)
RNA 1: CACCCGUGCAAAAAUGCAGGGGUCUAAAACUGAGCGGAUAACCUCUCUAUGG
RNA 2: GGGAAUGGAUCCACAUCUACGAAUUCGGCCCAUAGAGAGGUUAUCCGCUCAACAAGAUCGGAAGAGCACACGU
B9: target 1 MT 5'PFS GGC 3'PFS ACG (mixed)
RNA 1: CACCCGUGCAAAAAUGCAGGGGUCUAAAACUGAGCGGAUAACCUCUCUAUGG
RNA 2: GGGAAUGGAUCCACAUCUACGAAUUCGGCCCAUAGAGAGGUUAUCCGCUCAACGAGAUCGGAAGAGCACACGU
B10: target 1 MT 5'PFS UCA 3'PFS UUG (mixed)
RNA 1: CACCCGUGCAAAAAUGCAGGGGUCUAAAACUGAGCGGAUAACCUCUCUAUGG
RNA 2: GGGAAUGGAUCCACAUCUACGAAUUCUCACCAUAGAGAGGUUAUCCGCUCAUUGAGAUCGGAAGAGCACACGU
B11: target 1 insC 3' of 20,insC 3' of 18 (mixed)
RNA 1: CACCCGUGCAAAAAUGCAGGGGUCUAAAACUGAGCGGAUAACCUCUCUAUGG
RNA 2: GGGAAUGGAUCCACAUCUACGAAUUCGUACCACUACGAGAGGUUAUCCGCUCACCGAGAUCGGAAGAGCACACGU
B12: target 1 MT 5'PFS CUG 3'PFS AAG (mixed)
RNA 1: CACCCGUGCAAAAAUGCAGGGGUCUAAAACUGAGCGGAUAACCUCUCUAUGG
RNA 2: GGGAAUGGAUCCACAUCUACGAAUUCCUGCCAUAGAGAGGUUAUCCGCUCAAAGAGAUCGGAAGAGCACACGU
B13: target 1 MT 5'PFS GCA 3'PFS CGU (mixed)
RNA 1: CACCCGUGCAAAAAUGCAGGGGUCUAAAACUGAGCGGAUAACCUCUCUAUGG
RNA 2: GGGAAUGGAUCCACAUCUACGAAUUCGCACCAUAGAGAGGUUAUCCGCUCACGUAGAUCGGAAGAGCACACGU
B14: target 1 MT 5'PFS UGA 3'PFS ACG (mixed)
RNA 1: CACCCGUGCAAAAAUGCAGGGGUCUAAAACUGAGCGGAUAACCUCUCUAUGG
RNA 2: GGGAAUGGAUCCACAUCUACGAAUUCUGACCAUAGAGAGGUUAUCCGCUCAACGAGAUCGGAAGAGCACACGU
B15: target 1 MT 5'PFS GCA 3'PFS CGC (mixed)
RNA 1: CACCCGUGCAAAAAUGCAGGGGUCUAAAACUGAGCGGAUAACCUCUCUAUGG
RNA 2: GGGAAUGGAUCCACAUCUACGAAUUCGCACCAUAGAGAGGUUAUCCGCUCACGCAGAUCGGAAGAGCACACGU
B16: target 1 MT 5'PFS GCA 3'PFS ACC (mixed)
RNA 1: CACCCGUGCAAAAAUGCAGGGGUCUAAAACUGAGCGGAUAACCUCUCUAUGG
RNA 2: GGGAAUGGAUCCACAUCUACGAAUUCGCACCAUAGAGAGGUUAUCCGCUCAACCAGAUCGGAAGAGCACACGU
B17: target 1 MT 5'PFS ACG 3'PFS CUA (mixed)
RNA 1: CACCCGUGCAAAAAUGCAGGGGUCUAAAACUGAGCGGAUAACCUCUCUAUGG
RNA 2: GGGAAUGGAUCCACAUCUACGAAUUCACGCCAUAGAGAGGUUAUCCGCUCACUAAGAUCGGAAGAGCACACGU
B18: target 1 MT 5'PFS AGG 3'PFS CGU (mixed)
RNA 1: CACCCGUGCAAAAAUGCAGGGGUCUAAAACUGAGCGGAUAACCUCUCUAUGG
RNA 2: GGGAAUGGAUCCACAUCUACGAAUUCAGGCCAUAGAGAGGUUAUCCGCUCACGUAGAUCGGAAGAGCACACGU
B19: target 1 MT 5'PFS UCA 3'PFS UUA (mixed)
RNA 1: CACCCGUGCAAAAAUGCAGGGGUCUAAAACUGAGCGGAUAACCUCUCUAUGG
RNA 2: GGGAAUGGAUCCACAUCUACGAAUUCUCACCAUAGAGAGGUUAUCCGCUCAUUAAGAUCGGAAGAGCACACGU
B20: target 1 MT 5'PFS CGC 3'PFS CCG (mixed)
RNA 1: CACCCGUGCAAAAAUGCAGGGGUCUAAAACUGAGCGGAUAACCUCUCUAUGG
RNA 2: GGGAAUGGAUCCACAUCUACGAAUUCCGCCCAUAGAGAGGUUAUCCGCUCACCGAGAUCGGAAGAGCACACGU
B21: target 1 MT 5'PFS ACC 3'PFS UGU (mixed)
RNA 1: CACCCGUGCAAAAAUGCAGGGGUCUAAAACUGAGCGGAUAACCUCUCUAUGG
RNA 2: GGGAAUGGAUCCACAUCUACGAAUUCACCCCAUAGAGAGGUUAUCCGCUCAUGUAGAUCGGAAGAGCACACGU
B22: target 1 C4A,A9U (mixed)
RNA 1: CACCCGUGCAAAAAUGCAGGGGUCUAAAACUGAGCGGAUAACCUCUCUAUGG
RNA 2: GGGAAUGGAUCCACAUCUACGAAUUCGUACCAUAGAGAGGUUUUCCGAUCACCGAGAUCGGAAGAGCACACGU
B23: target 1 MT 5'PFS AUG 3'PFS UGA (mixed)
RNA 1: CACCCGUGCAAAAAUGCAGGGGUCUAAAACUGAGCGGAUAACCUCUCUAUGG
RNA 2: GGGAAUGGAUCCACAUCUACGAAUUCAUGCCAUAGAGAGGUUAUCCGCUCAUGAAGAUCGGAAGAGCACACGU
B24: target 1 MT 5'PFS CAG 3'PFS UUG (mixed)
RNA 1: CACCCGUGCAAAAAUGCAGGGGUCUAAAACUGAGCGGAUAACCUCUCUAUGG
RNA 2: GGGAAUGGAUCCACAUCUACGAAUUCCAGCCAUAGAGAGGUUAUCCGCUCAUUGAGAUCGGAAGAGCACACGU
B25: target 1 MT 5'PFS CCU 3'PFS AAC (mixed)
RNA 1: CACCCGUGCAAAAAUGCAGGGGUCUAAAACUGAGCGGAUAACCUCUCUAUGG
RNA 2: GGGAAUGGAUCCACAUCUACGAAUUCCCUCCAUAGAGAGGUUAUCCGCUCAAACAGAUCGGAAGAGCACACGU
B26: target 1 MT 5'PFS CCU 3'PFS AAA (mixed)
RNA 1: CACCCGUGCAAAAAUGCAGGGGUCUAAAACUGAGCGGAUAACCUCUCUAUGG
RNA 2: GGGAAUGGAUCCACAUCUACGAAUUCCCUCCAUAGAGAGGUUAUCCGCUCAAAAAGAUCGGAAGAGCACACGU
B27: target 1 MT 5'PFS CUG 3'PFS CCG (mixed)
RNA 1: CACCCGUGCAAAAAUGCAGGGGUCUAAAACUGAGCGGAUAACCUCUCUAUGG
RNA 2: GGGAAUGGAUCCACAUCUACGAAUUCCUGCCAUAGAGAGGUUAUCCGCUCACCGAGAUCGGAAGAGCACACGU

For this series, the target named is T1, EsCas13d, nuclease-dead (Eubacterium siraeum, UniProt B0MS50, R295A;H300A;R849A;H854A).
T1 sequence: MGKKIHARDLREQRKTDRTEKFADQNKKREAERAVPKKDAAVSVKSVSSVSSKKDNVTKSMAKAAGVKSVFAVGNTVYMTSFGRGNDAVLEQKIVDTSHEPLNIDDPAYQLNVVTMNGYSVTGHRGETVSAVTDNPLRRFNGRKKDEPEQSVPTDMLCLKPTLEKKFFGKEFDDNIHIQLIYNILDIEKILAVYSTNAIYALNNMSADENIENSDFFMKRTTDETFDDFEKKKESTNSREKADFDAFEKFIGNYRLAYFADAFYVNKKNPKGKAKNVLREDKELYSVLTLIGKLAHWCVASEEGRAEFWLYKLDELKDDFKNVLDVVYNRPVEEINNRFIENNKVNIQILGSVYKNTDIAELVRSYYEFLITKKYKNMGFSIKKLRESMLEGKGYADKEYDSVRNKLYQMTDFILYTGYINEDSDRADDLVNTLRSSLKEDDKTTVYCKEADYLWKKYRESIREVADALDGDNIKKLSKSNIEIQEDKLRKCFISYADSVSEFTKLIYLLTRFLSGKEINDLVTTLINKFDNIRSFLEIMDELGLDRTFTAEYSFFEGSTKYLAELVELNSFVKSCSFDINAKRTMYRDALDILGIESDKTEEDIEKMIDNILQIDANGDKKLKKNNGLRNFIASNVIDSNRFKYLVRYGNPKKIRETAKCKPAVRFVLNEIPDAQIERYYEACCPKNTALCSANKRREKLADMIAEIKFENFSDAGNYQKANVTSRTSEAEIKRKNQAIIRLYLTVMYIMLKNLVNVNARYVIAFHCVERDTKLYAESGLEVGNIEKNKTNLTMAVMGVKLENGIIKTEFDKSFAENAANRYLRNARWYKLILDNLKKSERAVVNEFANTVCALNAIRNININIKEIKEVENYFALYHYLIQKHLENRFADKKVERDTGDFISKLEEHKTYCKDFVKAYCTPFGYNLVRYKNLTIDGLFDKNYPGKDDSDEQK
Description: crRNA (strand 1, pre-loaded); Mg2+; 40 mM Tris-HCl pH 7.5, 150 mM NaCl, 6 mM MgCl2, 1 mM DTT, 0.1% Tween-20, 0.2 mg/ml BSA; 25 C; 10 min per concentration, then washed. Particulars: tags: His6-TwinStrep-SUMO cleaved; N-terminal SNAP kept (SNAP-Surface 488); label: 3' end held by stalled T7 RNA polymerase.
With B1, the dissociation constant Kd (commonly the equilibrium constant for the complex coming apart) came to 21 ± 5.5 nM. The molecule B2 displayed a Kd of 41 ± 11.5 nM. The molecule B3 came in with a Kd of 38 ± 14 nM. B4 came in with a Kd of 44 ± 19 nM. Then B5, with 53.5 ± 23 nM. Then B6, with 56.5 ± 14.5 nM; and B7, with 60.5 ± 22.5 nM. Take B8: binding was characterised by a dissociation constant (Kd) of 20 ± 10 nM. Against the preceding molecule, the Kd is about 3-fold lower. To B9 belongs 13.5 ± 2.85 nM; to B10, 37 ± 9.5 nM. B11 gave an equilibrium dissociation constant (Kd) of 6.1 ± 0.5 nM.

Take B12: binding was put at a Kd of 12.4 ± 3.4 nM. To B13 belongs 11.4 ± 2.2 nM; to B14, 110 ± 50 nM. B15 gave a Kd of 71 ± 27 nM. For B16, the dissociation constant (Kd) is roughly 32 nM. To B17 belongs roughly 32 nM.

The molecule B18 gave a Kd of roughly 90 nM. As for B19, the affinity, expressed as Kd, was 10.8 ± 2.25 nM. On to B20, for which the Kd was 19 ± 7 nM. Then B21, with roughly 19 nM; and B22, with 4.45 ± 0.25 nM. To B23 belongs 52 ± 19.5 nM. B24 had an equilibrium dissociation constant (Kd) of 19.7 ± 3.55 nM. This Kd lies about 2.6-fold lower than the previous one. Then B25, with 18 ± 4.5 nM.

B26 gave a Kd of 59.5 ± 20 nM. With B27, the Kd was 3.05 ± 0.55 nM. This Kd is about 20-fold lower than that of the molecule before.
